# B1: recombinant human TNFα 55 kD receptor expressed in COS-7 cells from plasmid prTNFR (receptor)
# chain: DSVCPQGKYIHPQNNSICCTKCHKGTYLYNDCPGPGQDTDCRECESGSFTASENHLRHCLSCSKCRKEMGQVEISSCTVDRDTVCGCRKNQYRHYWSENLFQCFNCSLCLNGTVHLSCQEKQNTVCTCHAGFFLRENECVSCSNCKKSLECTKLCLPQIENVKGTEDSGTTVLLPLVIFFGLCLLSLLFIGLMYRYQRWKSKLYSIVCGKSTPEKEGELEGTTTKPLAPNPSFSPTPGFTPTLGFSPVPSSTFTSSSTYTPGDCPNFAAPRREVAPPYQGADPILATALASDPIPNPLQKWEDSAHKPQSLDTDDPRTLYAVVENVPPLRWKEF
# Key:
# recombinant human TNFβ = target: T1, recombinant human TNFβ (human, UniProt P01374); assay: competition with 1 nM 125I-TNFα on COS-7 cells transfected with the TNFR cDNA; competitor 125I-TNFα
# T1 sequence: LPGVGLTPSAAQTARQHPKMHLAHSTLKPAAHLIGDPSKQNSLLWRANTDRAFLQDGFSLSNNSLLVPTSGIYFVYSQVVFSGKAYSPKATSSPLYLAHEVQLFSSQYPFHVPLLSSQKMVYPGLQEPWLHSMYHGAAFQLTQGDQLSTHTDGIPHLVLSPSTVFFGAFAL
# Experimental: (§1) COS cells transfected with the TNFα receptor cDNA (prTNFR, 1300 bp EcoRI fragment) were incubated for 24 hours and then seeded into six well tissue culture plates (Nunc) at 4.5 ×10^8 cells per well. The cells were incubated for a further 48 hours and then receptor expression was quantitated by radioligand binding for 2 hours at 4° C. […] Binding data was analysed by the method of Scatchard (14).
# recombinant human TNFα = recombinant human TNFα (human, UniProt P01375, radioiodinated (125I, Iodogen method) in the radioligand binding assays; unlabelled as competitor and in the cytotoxicity assays); assay: radioligand binding of 125I-TNFα to COS cells transfected with prTNFR, Scatchard analysis, 4 °C
# Experimental: as §1
# The resulting plasmid was transfected into COS cells which were analyzed for TNF receptor expression after three days.
binder,measurement,setting,value
B1,binding result,recombinant human TNFβ,binds
same,Ka,recombinant human TNFα,2.5e+09 M⁻¹

# Source: US5633145, “TNFα receptor-derived binding protein” (The Mathilda and Terence Kennedy Institute of Rheumatology, dated 1997)
